B1: His-CSNK1A1 (enzyme)
chain: MASSSGSKAEFIVGGKYKLVRKIGSGSFGDIYLAINITNGEEVAVKLESQKARHPQLLYESKLYKILQGGVGIPHIRWYGQEKDYNVLVMDLLGPSLEDLFNFCSRRFTMKTVLMLADQMISRIEYVHTKNFIHRDIKPDNFLMGIGRHCNKLFLIDFGLAKKYRDNRTRQHIPYREDKNLTGTARYASINAHLGIEQSRRDDMESLGYVLMYFNRTSLPWQGLKAATKKQKYEKISEKKMSTPVEVLCKGFPAEFAMYLNYCRGLRFEEAPDYMYLRQLFRILFRTLNHQYDYTFDWTMLKQKAAQQAASSSGQGQQAQTPTGKQTDKTKSNMKGF
B2: GST-UVRAG FL (natural protein)
chain: MSASASVGGPVPQPPPGPAAALPPGSAARALHVELPSQQRRLRHLRNIAARNIVNRNGHQLLDTYFTLHLCSTEKIYKEFYRSEVIKNSLNPTWRSLDFGIMPDRLDTSVSCFVVKIWGGKENIYQLLIEWKVCLDGLKYLGQQIHARNQNEIIFGLNDGYYGAPFEHKGYSNAQKTILLQVDQNCVRNSYDVFSLLRLHRAQCAIKQTQVTVQKIGKEIEEKLRLTSTSNELKKKSECLQLKILVLQNELERQKKALGREVALLHKQQIALQDKGSAFSAEHLKLQLQKESLNELRKECTAKRELFLKTNAQLTIRCRQLLSELSYIYPIDLNEHKDYFVCGVKLPNSEDFQAKDDGSIAVALGYTAHLVSMISFFLQVPLRYPIIHKGSRSTIKDNINDKLTEKEREFPLYPKGGEKLQFDYGVYLLNKNIAQLRYQHGLGTPDLRQTLPNLKNFMEHGLMVRCDRHHTSSAIPVPKRQSSIFGGADVGFSGGIPSPDKGHRKRASSENERLQYKTPPPSYNSALAQPVTTVPSMGETERKITSLSSSLDTSLDFSKENKKKGEDLVGSLNGGHANVHPSQEQGEALSGHRATVNGTLLPSEQAGSASVQLPGEFHPVSEAELCCTVEQAEEIIGLEATGFASGDQLEAFNCIPVDSAVAVECDEQVLGEFEEFSRRIYALNENVSSFRRPRRSSDK
B3: GST-UVRAG C-terminal fragment (501–699 aa) (domain or fragment)
chain: KGHRKRASSENERLQYKTPPPSYNSALAQPVTTVPSMGETERKITSLSSSLDTSLDFSKENKKKGEDLVGSLNGGHANVHPSQEQGEALSGHRATVNGTLLPSEQAGSASVQLPGEFHPVSEAELCCTVEQAEEIIGLEATGFASGDQLEAFNCIPVDSAVAVECDEQVLGEFEEFSRRIYALNENVSSFRRPRRSSDK

How the values were obtained:
GST-UVRAG FL = target: B2; test: pull-down
His-SMURF1 (E. coli) = His-SMURF1 (E. coli) (human, UniProt Q9HCE7-2 1-731); test: pull-down

Row | Binder | binding result (GST-UVRAG FL) | binding result (His-SMURF1 (E. coli))
1 | B1 | binds | –
2 | B2 | – | binds
3 | B3 | – | binds
